The results in this text go back to PMC3936483.

For experiment [1], the target named is CTRP2 (C1q/TNF-related protein 2), C-terminal FLAG- or HA-tagged, full length (mouse) (UniProt Q9D8U4). In words: SEC. On the technique in general: Size exclusion chromatography separates by hydrodynamic size, large species first.
In experiment [2] the target is serum CTRP2 (mouse (endogenous in C57BL/6 serum)) (UniProt Q9D8U4). In words: SEC.

CTRP2 (C1q/TNF-related protein 2), C-terminal FLAG- or HA-tagged, full length, sequence (Q9D8U4 25-294): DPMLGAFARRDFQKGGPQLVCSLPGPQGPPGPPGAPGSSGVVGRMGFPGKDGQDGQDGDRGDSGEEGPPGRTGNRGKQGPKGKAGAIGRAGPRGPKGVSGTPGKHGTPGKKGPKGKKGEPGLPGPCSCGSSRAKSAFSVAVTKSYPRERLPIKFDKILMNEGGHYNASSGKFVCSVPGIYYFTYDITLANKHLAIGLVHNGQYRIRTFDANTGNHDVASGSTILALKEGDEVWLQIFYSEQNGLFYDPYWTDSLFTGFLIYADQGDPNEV
serum CTRP2, sequence (Q9D8U4 25-294): as above

Broadly, the stoichiometry N is the number of molecules, sites or subunits per partner or assembly. “CTRP2 (C1q/TNF-related protein 2), C-terminal FLAG- or HA-tagged, full length (from UniProt Q9D8U4 25-294) (natural protein)” registered a stoichiometry N in experiment [1] of 3. In experiment [2], “serum CTRP2 (from UniProt Q9D8U4 25-294) (natural protein)” registered a stoichiometry N of 3.
